Assay results as given in the nanobody polyreactivity screen of Harvey et al. (2022).

Experiment: yeast display, Sf9 membrane polyspecificity reagent, FACS + sequencing; frameworks hold sequencing errors
How it was run: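 Nanobodies came from a synthetic yeast display library in Saccharomyces cerevisiae BJ5465, induced with galactose for 36–48 hours and stained for 1 hour at 4 °C with 10% biotinylated, detergent-solubilized Sf9 membrane reagent. Cells were enriched on streptavidin microbeads and then FACS-sorted, with low and high (top ~1%) gates set on anti-HA fluorescence for expression and streptavidin fluorescence for reagent binding. Each polyreactivity label reflects the gate a clone came from. Genes were amplified by colony PCR, sequenced by MiSeq 2 × 250 and filtered by CDR length.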

| Sequence | polyreactivity (PSR sort gate) |
| --- | --- |
| QVQLVESGGGLVQAGGSLLLSCAASGTTSLVNAMGSYRQAPGKERELVAAISWSGGSTYYADSVKGRFTISRANAKNTVFLQRNSLKPEDTAVYYCAAESYGYWEYDYWGQGTQVTLSS | high polyreactivity |
| QVQLVESGGGLVQAGGSLLLSSAASGINFGNYAMGWYRQAPGKERELVATIDSAGSPYYADSVNGRFTISRDNAKNTVYLQMNSLKPEDTAVYYCAVRFGTYGRYFGYDYWGQGTQVTVSS | high polyreactivity |
| QVQLVESGGGLVQAGGSLLLTCAASGIIFVIYAMGWYRQAPGKERELVAAITSDGSTSYADSVKGRFTISRDNAKNTVYLQMNSLKPEDTAVYYCAKDFFEHSPVSHTYSSSKYDYWGQGTQVTVSS | low polyreactivity |
| QVQLVESGGGLVQAGGSLPLICAASGSTSVVNAMGWYRQAHGKERELVATIPRVGRTYYADSVKGRFTISRDNAKNTVYLQMNSLKPEDTAVYYCASRLVGRSYKYDYWGQGTQVTVSS | high polyreactivity |
| QVQLVESGGGLVQAGGSLPLSCAASGFIFYRYTMGWYRQAPGKERELVAAITRNGVSTYYADSVKGRFTISRDNAKNTVYLQMNSLKPEDTAVYYCAAQRYRTGDSWGQGTQVTVSS | high polyreactivity |
| QVQLVESGGGLVQAGGSLPLSCAASGFTFYRYTMVWYRQAPGKERELVAAISRGGRTYYADSVKGRFTISRDNAKNTDYLQMNSLKPEDTAVYYCNARYPSADDWGQGTQVTVSS | high polyreactivity |
| QVQLVESGGGLVQAGGSLPLSCAASGIIFPYNAMGWSRQAPGKERELVAAITGGGSTYYADSVKGRFTISRDNAKNTVYLPMNSLKPEDSAVYYCAADGSGPGYDYWGQGTQVTVSS | low polyreactivity |
| QVQLVESGGGLVQAGGSLPLSCAASGLIINYYVMGWYRQAPGKERELVAANTISGGRSYYADSVKVRFTISRDNAKNTVYLQMKCLNPEDTAVYYCARRFGPYRKGYQSYGIYDYWGQGTHVTVSS | high polyreactivity |
| QVQLVESGGGLVQAGGSLPLSCAASGRIFWDYDMGRYRQAHGKERELVAVITFSGDSTYYADSVKGRFTISRDNAKNTVYLQMNSLKPEDTAVYYCASARAIRQFWYVATFEYWGQGTQVTVSS | low polyreactivity |
| QVQLVESGGGLVQAGGSLPLSCAASGSTFGSYAMGWYRQAPGKERELVAAISYSGGSTYYADSVKGRFTISRDNEKNTVFLQMNSLKPEDTAVYYCATVRKYRAMDYWGQGTQVSVSS | high polyreactivity |
| QVQLVESGGGLVQAGGSLPLSCAASGSTLSGYAMGWYRQAPGKEREMVAAITKSGGRTYYADSVKGRFTISRDNAKNTVYLQMNSLKPEDTAVYYCAKAYPGTYREYDYWGQGTQVTVSS | high polyreactivity |
| QVQLVESGGGLVQAGGSLPLSCAASRRTLYTNTMGWYRQAPGKESELDAGISKRGGSTYYADSVKGRFTITRDTAKNTVYLQMNSRKPEDTAVYYCNAPVSYWSRFRSPIYEYWGQGTQVTVSS | high polyreactivity |
| QVQLVESGGGLVQAGGSLPLSCAATGRTFSYNAMGSYRQAPAKETELVAAISSGGTTNYADSVKGRFTISRDNAKNTVYLQMNSVKPDDTAVYYCNADRLVWSFTDYGFSQYDYWGQGTQVTVSS | low polyreactivity |
| QVQLVESGGGLVQAGGSLRFICAASGGISSSNAMGWYRQAHGKERELVAGINSRGGSTYADSVKGRFTISRANAKNTVYLQMNSLKPEDTAVYYCAAAPTYKWRRKNYDYWGQGTQVTVAS | high polyreactivity |
| QVQLVESGGGLVQAGGSLRFRCAASGFTFGHYAIVWYRQAPGKERELVAAISKSGTRTYYADSVKGRFTISRDNAKNTVYLQMTSLKPEDTAVYYCATTAYNGYDYWGQGTQVTVSS | high polyreactivity |
| QVQLVESGGGLVQAGGSLRFSCAASGFIFRDNAMVWYRRAPGKERELVAAISYSGGSTYYADSVKGRFTISRDNAKNTVYLQMNSVKPEDTAVYYCAASYGPKRRGYWGQGTQVTVSS | high polyreactivity |
| QVQLVESGGGLVQAGGSLRFSCAASGFTFSVYAMGWYRQAPGTEMELVAAIHWSGGSTYYADSVKGRFTISRDNAKNTVYLQMNSLKPEDTAVYYCNTLYWYTRHVVDYWGQGTQVTVSS | high polyreactivity |
| QVQLVESGGGLVQAGGSLRFSCAASGGIFWYNAMGWYRQAPGKERELVAAISASTGSTYYADSVKGRFTISRDNAKNTVYLQMNSLKPEDTAVYYCAATRYRSARYAYGHWGQGTQVTVSS | high polyreactivity |
| QVQLVESGGGLVQAGGSLRFSCAASGGTFQGNAMGWYRQAPGKEREFVATITRGGGSTYYADSVKGRFTISRDNAKNTVYLQMNSLKPEDTAVYYCNAKPSYYQRYNYWGQGTQVTVSS | high polyreactivity |
| QVQLVESGGGLVQAGGSLRFSCAASGINIWTNVMGWYIQAPRKESEFVAAISRSGGSTYYADSVKGSFTISRDNAKNTVYLQMISLKPEDTAVYYCAARWSYSVQKFDYWGQGTQLTVSS | high polyreactivity |
| QVQLVESGGGLVQAGGSLRFSCAASGRIFGGNTMGWYRQAPGKERELVATIRSGDSTYYADSVKGRFTISRDNAKNTVYLQMNSLKPEDTAVYYCGYDYWGQGTQVTVSS | low polyreactivity |
| QVQLVESGGGLVQAGGSLRFSCAASGRTFVPYAMGWYRQAPGKERELVARIDSSGGSTYYADSVKGRFTISRDNAKNTVYLQMNSLKPEDTAVYYCAAVFYYWSLRSYYWGQGTQVTVSS | high polyreactivity |

| Sequence | polyreactivity (PSR sort gate) |
| --- | --- |
| QVQLVESGGGLVQAGGSLRFSCAASGRTIWTYVMGWYRQAPGKERELVAAISRSGSSTYYADSVKGRFTISRDNAKNTVYLQMNSLKPEDTAVYYCNKVDGTTLDDHYMDYWGQGTQVTVAS | low polyreactivity |
| QVQLVESGGGLVQAGGSLRFSCAASGSIFITYAMGWYRQAPGKERELVAAISRSGGSTYYADSVKGRFTISRDNAKNTVYLQMNSLKPEDTAVYYCAAYPYSAGRYYYWGQGTQVTVSS | high polyreactivity |
| QVQLVESGGGLVQAGGSLRFSCAASGSIFSSYAMGWYRQAPGKERELVAAISSSGDSTYADSVKGRFTISRDNAKNTVYLQMNSLKPEDTAVYYCAVGGAGSDDYWGQGTQVTVSS | low polyreactivity |
| QVQLVESGGGLVQAGGSLRFSCAASGSIFYRNAMGWDRQAPGKEREMVAAISASSGRTYYADSVKGRFTISRDNAKNTVYLQMNSLKPEDTAVYYCAVRPYRSAGGSVTRGAYYYWGQGTQVTVSS | high polyreactivity |
| QVQLVESGGGLVQAGGSLRFSCAASGSTFAYNDMGWYRQAPGKERELVADIRSGGNTNYADSVKGRFTISRDNAKNTVYFQMNSLKPEDTAVYYCATDGYRIDVYHPDYRYDYWGQGTQVTVSS | low polyreactivity |
| QVQLVESGGGLVQAGGSLRFSCAASGSTFGYYAMGWYRQAPGKEREMVAVITYSGGSTYYADSVKGRFTISRDNAKNTVYLQMNSLKPEDTAVYYCATDNYDWSSWAFRGYWYDYWGQGTQVTVSS | low polyreactivity |
| QVQLVESGGGLVQAGGSLRFSCAASGSTFPSYAMGWYRQAPGKERELVAAITNGGSTTYADSVKGRFTISRDNAKITDYLQMNSLKPEDTAVYYCAARYYYYYYIRRDYWGQGTQVTVSS | low polyreactivity |
| QVQLVESGGGLVQAGGSLRFSCAASGSTIPPNAMGWYRQAPGKERELVAAINSTGSTNYADSVKGRFTISRDNAKNTVSLQMNSLQPEDTAVYYCAAEGLPYVRVFDFVSRYDYWGQGTQVTVSS | low polyreactivity |
| QVQLVESGGGLVQAGGSLRFSCAASGTFVPYAMGWYRQAPGKEMELVARITWRGGSTYYADSVKGRFTISRDNAKNTVDLQLNSLKPEDTAVYYCATVSDNRYYYWGQGTQVTVSS | low polyreactivity |
| QVQLVESGGGLVQAGGSLRFSCAASRFNFYDYVMGWYRQAPGKYRELVAAISSNGGSTYYADSVKGRFTISRDNAKNTVYFQMYSLKPEDTAVYYCAVTENSKSNKIRPDQGDYWGQGTQVTVSS | high polyreactivity |
| QVQLVESGGGLVQAGGSLRFSCPASGSILTGYAMGWYRQAPGKERELVAAINFSGDNTYYADSVKGRFTISRDNAKNTVFLPMNSLKPEDTAVYYCNADGRYAYVWYDYCGQGTQVTVSS | low polyreactivity |
| QVQLVESGGGLVQAGGSLRIICAASGFIFKYYAMGWYRQAPGKERELVAAISSGGSTKYADSVKGRFTISRDNAKNTVYLQMNSLIPEDTAVYYCNADWYWKYDYWGQGTQVTVSS | high polyreactivity |
| QVQLVESGGGLVQAGGSLRIICAASGRIFSNYAMGWYRQAPGKERELVAAITYSTSRTYYADSVKGRFTISRDNAKNTVYLHMNSLKPEDTAVDYCAAGRGPYYRSRTPLYYWGQGTQVTVSS | high polyreactivity |
| QVQLVESGGGLVQAGGSLRIISAASGSTFRWYDMGWYRQAPGKEMELVAAITGSGGATYYADSVKGRFTIARDYAKNTVYLQKNRLKPEDTAVYYCAAVWWVPLAYDDYDYWGQGTQVTVSS | high polyreactivity |
| QVQLVESGGGLVQAGGSLRISCAASGFIFGGYAMGWYRQAPGKERELVAAISYSGGSTYYADSVKGRFTISRDNAKNTVYLQMNSLKPEDTAVYYCAVGYPYRYDYWGQGTQVTVSS | high polyreactivity |
| QVQLVESGGGLVQAGGSLRISCAASGFIFGPNAMGWYRQAPGKERELVAAITYSGGSTYYADSVKGRFTISRDNAKNTVYLQMNSLKPEDTAVYYCAADLYTLRYGYRYEYWGQGTQVTVSS | high polyreactivity |
| QVQLVESGGGLVQAGGSLRISCAASGFIFRSYAMGWYRQAPGKERELVAAISRSGGSTYYADSVKGRFTISRDNAKNTVYLQMNSLKPEDTAVYYCATDGGRSTARGYGHWGQGTQVTVSS | high polyreactivity |
| QVQLVESGGGLVQAGGSLRISCAASGFIIFEYDMGWYRQAPGKERDFVAAINFSGGSTYYADSEKGRFTISRDNAKNTVYLQMNSLKPEDTAVYYCAADVVRYYYTYDYWGQGTQVTVSS | low polyreactivity |
| QVQLVESGGGLVQAGGSLRISCAASGFILKDNAMGWYRQAPGKERELFAAISSGGGTYYADSEKGRFTITRDNAKNTVYLQMNSLNPEDTAVYYCNGDDLYSLNDSSEDYWGQGSQVTVSS | high polyreactivity |
| QVQLVESGGGLVQAGGSLRISCAASGFILTGYTMGWYRQAPGKERELVAAISWSGARTYYADSVKGRFTISRDNAMNTVYLQMNSLKPEDTAVYYCARDYYRPTQRYDYWGQGTQVTVSS | high polyreactivity |
| QVQLVESGGGLVQAGGSLRISCAASGFTFEDNTMGWYRQAPGKERELVAAITWGGVSTYYADSVKGRFTISRDNAKNTVYLQMNSLKPEDTAVYYCARDYDVYTVFLMDYWGQGTQVNVSS | low polyreactivity |
